{"source": "patent US20060147420A1", "about": "(University of Texas, published 2006)", "binders": {"B1": {"name": "anti-EGFRvIII peptide (PEPCH1)-FITC (peptide)", "peptide": "HFLIIGFMRRALCGA", "modifications": "also: FITC label, position not given here", "notes": "Synthetic peptide after Campa et al., 2000; Used at 1 uM as a FITC conjugate; also called PEPHC1; PEPHC1 ligand"}}, "molecular_target": "T1, EGFRvIII (on U-87.ΔEGFRvIII cells) (human, UniProt P00533 25-1210)", "T1 construct": "whole, on cells; also called de2-7 EGFR; mutant EGFR", "test": "flow cytometry, membrane fluorescence staining of cell suspensions with 1 uM FITC-peptide for 30 min", "note": "Where no end group is shown, it is not given here."}
{"binder": "B1", "values": [{"measurement": "binding result", "value": "binds"}]}
